From patent US20190241648A1 (STATEN BIOTECHNOLOGY B V, published 2019)
Ends that are not written are not given here.

Tests used:
Assay in all cases: cyclic peptide substitution array
[1] = target: T1, ApoC3 peptide D68W (human, cyclic (thioether))
T1 peptide: DKFSEFWDLWPEV
In short: (§1)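 Peptide microarrays incubated with antibody samples, then stained with goat anti-human IgG (Fc) DyLight680 and anti-HA DyLight800 control antibodies, scanned at intensity 7/7 (red/green). Secondary-only pre-stain checked background binding; framing HA peptides served as quality control; substitution effects read as changes in spot intensity.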

[2] = target: T2, ApoC3 peptide V71R (human, not fully specified; cyclic (thioether))
T2 peptide: DKFSEFWDLDPER
In short: as §1

[3] = target: T3, ApoC3 peptide D59C (human, thioether (positions not given here); not fully specified (C-terminus, bridges))
T3 peptide: CKFSEFWDLDPEV
In short: as §1

[4] = target: T4, ApoC3 peptide S62G (human, not fully specified; cyclic (thioether))
T4 peptide: DKFGEFWDLDPEV
In short: as §1

[5] = target: T5, ApoC3 peptide L67A (human, not fully specified; cyclic (thioether))
T5 peptide: DKFSEFWDADPEV
In short: as §1

[6] = target: T6, ApoC3 peptide L67F (human, thioether (positions not given here); not fully specified (bridges); also: thioether between a C-terminal Cys side chain and a modified N-terminus, the Cys is not in the chain)
T6 peptide: DKFSEFWDFDPEV
In short: as §1

[7] = target: T7, ApoC3 peptide F61A (human, cyclic (thioether))
T7 peptide: DKASEFWDLDPEV
In short: as §1

[8] = target: T8, ApoC3 peptide D66M (human, not fully specified; cyclic (thioether))
T8 peptide: DKFSEFWMLDPEV
In short: as §1

[9] = target: T9, ApoC3 peptide D66H (human, not fully specified; cyclic (thioether))
T9 peptide: DKFSEFWHLDPEV
In short: as §1

[10] = target: T10, ApoC3 peptide D66C (human, not fully specified; cyclic (thioether))
T10 peptide: DKFSEFWCLDPEV
In short: as §1

[11] = target: T11, ApoC3 peptide W65F (human, not fully specified; cyclic (thioether))
T11 peptide: DKFSEFFDLDPEV
In short: as §1

[12] = target: T12, ApoC3 peptide D66L (human, not fully specified; cyclic (thioether))
T12 peptide: DKFSEFWLLDPEV
In short: as §1

[13] = target: T13, ApoC3 peptide L67V (human, thioether (positions not given here); not fully specified (bridges); also: thioether between a C-terminal Cys side chain and a modified N-terminus, the Cys is not in the chain)
T13 peptide: DKFSEFWDVDPEV
In short: as §1

[14] = target: T14, ApoC3 peptide V71K (human, thioether (positions not given here); also: cyclic (thioether), ring places not given here)
T14 peptide: DKFSEFWDLDPEK
In short: as §1

[15] = target: T15, ApoC3 peptide E70D (human, cyclic (thioether))
T15 peptide: DKFSEFWDLDPDV
In short: as §1

[16] = target: T16, ApoC3 peptide V71Q (human, not fully specified; cyclic (thioether))
T16 peptide: DKFSEFWDLDPEQ
In short: as §1

[17] = target: T17, ApoC3 peptide E70S (human, cyclic (thioether))
T17 peptide: DKFSEFWDLDPSV
In short: as §1

[18] = target: T18, ApoC3 peptide D68C (human, cyclic (thioether))
T18 peptide: DKFSEFWDLCPEV
In short: as §1

[19] = target: T19, ApoC3 peptide W65P (human, cyclic (thioether))
T19 peptide: DKFSEFPDLDPEV
In short: as §1

[20] = target: T20, ApoC3 peptide F64L (human, thioether (positions not given here); not fully specified (bridges); also: cyclic (thioether), positions not given here)
T20 peptide: DKFSELWDLDPEV
In short: as §1

[21] = target: T21, ApoC3 peptide K60F (human, cyclic (thioether))
T21 peptide: DFFSEFWDLDPEV
In short: as §1

[22] = target: T22, ApoC3 peptide V71P (human, not fully specified; cyclic (thioether))
T22 peptide: DKFSEFWDLDPEP
In short: as §1

[23] = target: T23, ApoC3 peptide V71C (human, thioether (positions not given here); also: cyclic (thioether), ring places not given here)
T23 peptide: DKFSEFWDLDPEC
In short: as §1

[24] = target: T24, ApoC3 peptide L67Y (human, thioether (positions not given here); not fully specified (bridges); also: thioether between a C-terminal Cys side chain and a modified N-terminus, the Cys is not in the chain)
T24 peptide: DKFSEFWDYDPEV
In short: as §1

[25] = target: T25, ApoC3 peptide K60P (human, cyclic (thioether))
T25 peptide: DPFSEFWDLDPEV
In short: as §1

[26] = target: T26, ApoC3 peptide D59W (human, thioether (positions not given here); not fully specified (C-terminus, bridges); also: cyclised via thioether between a C-terminal Cys and a modified N-terminus, the Cys and the N-terminal …)
T26 peptide: WKFSEFWDLDPEV
In short: as §1

[27] = target: T27, ApoC3 peptide S62N (human, thioether (positions not given here); also: cyclic (thioether), ring places not given here)
T27 peptide: DKFNEFWDLDPEV
In short: as §1

[28] = target: T28, ApoC3 peptide E70L (human, cyclic (thioether))
T28 peptide: DKFSEFWDLDPLV
In short: as §1

[29] = target: T29, ApoC3 peptide P69K (human, not fully specified; cyclic (thioether))
T29 peptide: DKFSEFWDLDKEV
In short: as §1

[30] = target: T30, ApoC3 peptide F61P (human, cyclic (thioether))
T30 peptide: DKPSEFWDLDPEV
In short: as §1

% of binding to wild-type peptide [1]: 0%
% of binding to wild-type peptide [2]: 57.3%
% of binding to wild-type peptide [3]: 66.2%
% of binding to wild-type peptide [4]: 0.88%
% of binding to wild-type peptide [5]: 21%
% of binding to wild-type peptide [6]: 0.37%
% of binding to wild-type peptide [7]: 17.4%
% of binding to wild-type peptide [8]: 0%
% of binding to wild-type peptide [9]: 0%
% of binding to wild-type peptide [10]: 10.3%
% of binding to wild-type peptide [11]: 5.5%
% of binding to wild-type peptide [12]: 0%
% of binding to wild-type peptide [13]: 84.8%
% of binding to wild-type peptide [14]: 91.1%
% of binding to wild-type peptide [15]: 82.9%
% of binding to wild-type peptide [16]: 86.8%
% of binding to wild-type peptide [17]: 55.2%
% of binding to wild-type peptide [18]: 5.46%
% of binding to wild-type peptide [19]: 0%
% of binding to wild-type peptide [20]: 118%
% of binding to wild-type peptide [21]: 53.2%
% of binding to wild-type peptide [22]: 173%
% of binding to wild-type peptide [23]: 56.9%
% of binding to wild-type peptide [24]: 0.02%
% of binding to wild-type peptide [25]: 205%
% of binding to wild-type peptide [26]: 56.8%
% of binding to wild-type peptide [27]: 0%
% of binding to wild-type peptide [28]: 59.1%
% of binding to wild-type peptide [29]: 20.7%
% of binding to wild-type peptide [30]: 52.7%
B1: Llama antibody 5E5 (antibody, V domains shown)
VH: QLQLVESGGGLVQPGGSLRLSCAASGFTFGTYSMRWVRQVPRKALEWVSSISTDGGGTAYRDSVKGRFTISRDNAKNTLYLQMNNLKPEDTAIYYCVIAGYSDWGQGTQVTVSS
VL: ATMLTQSPGSLSVVPGESASISCKTSQGLVHSDGKTYFYWFLQKPGQSPQQLIYQVSNRASGVPDRFTGSGSGTDFTLKISGVKAEDAGVYYCAQGTYYPHTFGSGTRLEIK
notes: detected with goat anti-human IgG (Fc); also called mAb 5E5
